Measured values reported in the supplement of paper PMC11865577.

These sequences were tested on G-clamp-N3 (biotin conjugate) (assay: pull-down binding Z-score (relative to library population); higher = stronger binding). Details: RNA library: Library-1 (pre-miRNA loops + repeats).
Outline: (§1)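 Cy5- or Cy3-end-labelled RNA library (1 μg) was heat-folded in phosphate/NaCl/KCl buffer and incubated 60 min at 25 °C with streptavidin beads carrying 100 pmol biotin-conjugated small molecule. After three washes, bound RNA was eluted in hot SDS and hybridised 20 h at 55.5 °C to a DNA barcode microarray. Binding was scored by subtracting a beads-only control, averaging barcoded replicate probes after dropping highest and lowest, and converting to a Z-score against library mean and standard deviation.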

Compared with UUGAAUCACACACACAUUUCAA [hsa-mir-4803], “UUGACCAAUCAUCUUAUUGACUAGA [hsa-mir-6502]” is lower in “pull-down binding Z-score” value: -0.451 for the first, -1.52 for the second.

Compared with UUGAGAACCAG [hsa-mir-4328], UUGAGAAGUAAUUGA [hsa-mir-548ak] is higher in “pull-down binding Z-score” value: -0.606 for the first, 0.0758 for the second.

Compared with UUGAGCAUCUUCUGGGCAGCUGA [hsa-mir-7854], “UUGAGGAGAGCACCACAGUGGUCAUCACACAG [hsa-mir-622]” is lower in “pull-down binding Z-score” value: -0.764 for the first, -1.25 for the second.

First: UUGAGGGACAUGGUUAAUGGAAUUGUCUCA [hsa-mir-342]
Second: UUGAUGUCAGAAUGAGGUGUACCAA [hsa-mir-4714]
The “pull-down binding Z-score” value of the first is lower: 0.369 for the first, 1.29 for the second.

Compared with “UUGAUGUCAGGUUAUCCCCAAGCAUAACCUCAC [hsa-mir-4639]”, UUGAUUCAGUAAAACAUUCAA [hsa-mir-891b] is higher in “pull-down binding Z-score” value: -1.21 for the first, -0.189 for the second.

Compared with UUGCCCAA [hsa-mir-548bb], “UUGCUCACGGUAAGAAAAACAUGAGUAA [hsa-mir-8062]” is lower in “pull-down binding Z-score” value: 0.764 for the first, 0.431 for the second.

Compared with UUGCUCUUUGGUGGAGAUA [hsa-mir-6074], UUGCUUAAG [hsa-mir-924] is lower in “pull-down binding Z-score” value: 0.646 for the first, -0.513 for the second.

Going from “UUGGCACAGGGAAGCGAGUCUGCCAA [hsa-mir-195]” to UUGGCCUUUAUUUUCAAUGGCAAG [hsa-mir-548b], the “pull-down binding Z-score” value falls from 2.53 to -0.0843.

Compared with “UUGGCGUAGUGAAAUAUAUAUUAAACACCAA [hsa-mir-16-2]”, “UUGGCGUUAAGAUUCUAAAAUUAUCUCCAG [hsa-mir-16-1]” is lower in “pull-down binding Z-score” value: -0.484 for the first, -1.03 for the second.

First: UUGGGAUCCACCUUUCUCUCGA [hsa-mir-196b]
Second: UUGGGGAGGAGCUAAGAAGCCCCUACAGGGCCCAG [hsa-mir-4257]
The “pull-down binding Z-score” value of the first is lower: -0.507 for the first, 1.25 for the second.

First: UUGGUCCGUAUGUGUGGUGCCACCGG [hsa-mir-1908]
Second: UUGGUCUUUCCCCUGUGGUCCCAA [hsa-mir-2909]
The “pull-down binding Z-score” value of the first is higher: -0.147 for the first, -0.499 for the second.

Compared with “UUGGUGACAGCAGCAGUAGAGUUGCCAG [hsa-mir-6501]”, UUGGUGUGUAUUGCCUUGUCAA [hsa-mir-1179] is lower in “pull-down binding Z-score” value: 0.0434 for the first, -0.723 for the second.

Going from “UUGUAAUAGUGUAGAAUGUUGGUUAAC [hsa-mir-591]” to UUGUCGUUAAAAAUAGCAA [hsa-mir-548n], the “pull-down binding Z-score” value rises from 0.797 to 0.889.

Going from “UUGUCUCCUCAAGUUGCGACGAGACAG [hsa-mir-4645]” to “UUGUGAAACACAGGUGUUUUUUAACCUCAC [hsa-mir-6841]”, the “pull-down binding Z-score” value rises from -1.13 to -0.237.

Going from “UUGUGAUGUUUACCGUUUAAAUCCACGG [hsa-mir-125b-1]” to UUGUGGCAAUACAG [hsa-mir-8068], the “pull-down binding Z-score” value rises from -0.878 to 0.635.

First: UUGUGGCUUUGGGUGGAUAUUAAUCAGCCACAG [hsa-mir-383]
Second: UUGUGUAUGUACUUAGCUGUACUAUA [hsa-mir-1244-1_1244-4_1244-2_1244-3]
The “pull-down binding Z-score” value of the first is higher: 0.747 for the first, 0.509 for the second.

Compared with UUGUGUCCAUCAUGCAACAA [hsa-mir-802], UUGUGUGGUAUCCGUAUAGUCACAG [hsa-mir-10b] is higher in “pull-down binding Z-score” value: -1.17 for the first, -0.0547 for the second.

Going from “UUGUUACAUUUUAGGAUUGCUUGCCCCUUGCUCCAAUGGUGCAGGCAGAAGAAAUGCAAACAA [hsa-mir-3973]” to “UUGUUCGUUGCAUUUUUAGGAACAA [hsa-mir-3613]”, the “pull-down binding Z-score” value rises from -0.551 to 1.4.

Compared with UUGUUCUGAUGUACUACGACAA [hsa-mir-7-3], UUGUUGUUAUUACU [hsa-mir-378d-1] is higher in “pull-down binding Z-score” value: -1.28 for the first, -0.945 for the second.

First: UUUAAGACACCCUGUACCUUAAA [hsa-mir-3121]
Second: UUUACAUAUAAAUUUCUAUUUGU [hsa-mir-4503]
The “pull-down binding Z-score” value of the first is lower: -1.57 for the first, -1.51 for the second.

Compared with “UUUACAUGCUACAGUCAAGAUGCGAA [hsa-mir-15b]”, “UUUACCAUUACUUUCAAUGGCAAA [hsa-mir-548a-3]” is higher in “pull-down binding Z-score” value: -0.982 for the first, -0.644 for the second.

First: UUUACUUUUGGCCUCAAGUCAUUGCAGUAAA [hsa-mir-4796]
Second: UUUAGAAAAGAGAAUUCCAAA [hsa-mir-1252]
The “pull-down binding Z-score” value of the first is higher: -0.453 for the first, -1.48 for the second.

Compared with “UUUAGAUUUAAAUAGUGAUUGUCUAG [hsa-mir-29b-1]”, UUUAGUAUGCCACAUUUCUAAA [hsa-mir-4282] is lower in “pull-down binding Z-score” value: 0.526 for the first, -1.54 for the second.

Going from “UUUAUGCCUGUUAGCAUGAAAAAAGAGGCUGAGAA [hsa-mir-7515]” to UUUCAGAUAACUCGGGA [hsa-mir-4320], the “pull-down binding Z-score” value falls from -0.395 to -0.732.

Going from UUUCCCAUUAUUUUAAUUGCGAA [hsa-mir-570] to UUUCUAUAACUGGAUGAAA [hsa-mir-498], the “pull-down binding Z-score” value rises from -0.975 to -0.372.

Compared with UUUCUCUUAUGUGAAAAAAAAGAAG [hsa-mir-525], UUUCUCUUGUCCAAAGGAAAAGAAG [hsa-mir-524] is higher in “pull-down binding Z-score” value: -1.41 for the first, -0.493 for the second.

Going from “UUUCUCUUGUCUAAAAGAAAAGAAA [hsa-mir-518f]” to UUUCUGAAUUUGUGAGA [hsa-mir-4463], the “pull-down binding Z-score” value rises from -0.201 to -0.0109.

First: UUUCUGUUGUCUAAAAGAAAAGAAA [hsa-mir-527]
Second: UUUCUGUUGUCUAAAAGAAGAGAAA [hsa-mir-518a-2]
The “pull-down binding Z-score” value of the first is lower: 0.0533 for the first, 0.832 for the second.

With UUUCUGUUGUCUGAAAGAAAAGAAC [hsa-mir-523] the “pull-down binding Z-score” value was -0.976.

These sequences were tested on TO-3-N3 (biotin conjugate) in the same assay as above. Details: RNA library: Library-2.
Outline: as §1

First: UUCGCAUUAUUUAAUGAUGCCCA [hsa-mir-323b]
Second: UUCGCGGUUGGGCU [hsa-mir-3143]
The “pull-down binding Z-score” value of the first is lower: -0.392 for the first, 1.21 for the second.

Compared with UUCUAAUGCCAAGAA [hsa-mir-1279], UUCUAGUCCCUAUUAGACUAGAA [hsa-mir-5681a] is lower in “pull-down binding Z-score” value: 0.835 for the first, -0.543 for the second.

Going from UUCUCCUUGGGAAAAACAGAGAA [hsa-mir-605] to “UUCUCGAGUCUAUGGCUCCGGCCGAGAG [hsa-mir-219a-1]”, the “pull-down binding Z-score” value rises from -0.446 to 0.197.

Compared with “UUCUCGGUUGGCCGCAGACUCGUACAAGAA [hsa-mir-219b]”, UUCUCUUUAUUUAUGAUGAA [hsa-mir-494] is lower in “pull-down binding Z-score” value: -0.383 for the first, -0.968 for the second.

Compared with “UUCUGCUGAAGACUGGUCUCUUCAUGUGUGAG [hsa-mir-6133]”, “UUCUGCUGUGCCUUACAGCAGUAGAA [hsa-mir-3179-4_3179-1_3179-3_3179-2]” is higher in “pull-down binding Z-score” value: -0.389 for the first, 0.188 for the second.

Going from UUCUGUGGUUUGAAAGGAA [hsa-mir-1323] to “UUCUGUUGUCAGAAAGAAGAGAA [hsa-mir-1283-1]”, the “pull-down binding Z-score” value falls from 0.85 to 0.146.

First: UUCUGUUGUCUGAAAGAAAAGAA [hsa-mir-1283-2]
Second: UUCUGUUGUCUGAAAGAAACCAA [hsa-mir-518d]
The “pull-down binding Z-score” value of the first is lower: -0.517 for the first, -0.253 for the second.

First: UUCUUCCUGGAGUCGGGGAAAAG [hsa-mir-320e]
Second: UUCUUGUACGAGUCUGCGGCCAACCGAGAA [hsa-mir-219a-2]
The “pull-down binding Z-score” value of the first is higher: 0.308 for the first, -0.402 for the second.

First: UUCUUUGAGGAUCUGGCCUAAAGAG [hsa-mir-202]
Second: UUCUUUUUUCUGAAAUUCUUCAGGAAGGA [hsa-mir-3167]
The “pull-down binding Z-score” value of the first is higher: 1.14 for the first, 0.368 for the second.

Compared with UUGAACUUCAUUUCUCAUGCUCA [hsa-mir-6870], UUGAAUCACACACACAUUUCAA [hsa-mir-4803] is higher in “pull-down binding Z-score” value: -0.278 for the first, -0.208 for the second.

Compared with “UUGACCAAUCAUCUUAUUGACUAGA [hsa-mir-6502]”, UUGAGAACCAG [hsa-mir-4328] is higher in “pull-down binding Z-score” value: -0.403 for the first, 1.74 for the second.

Going from UUGAGAAGUAAUUGA [hsa-mir-548ak] to UUGAGCAUCUUCUGGGCAGCUGA [hsa-mir-7854], the “pull-down binding Z-score” value falls from 0.404 to -0.0613.

Going from “UUGAGGAGAGCACCACAGUGGUCAUCACACAG [hsa-mir-622]” to “UUGAGGGACAUGGUUAAUGGAAUUGUCUCA [hsa-mir-342]”, the “pull-down binding Z-score” value rises from 0.0413 to 0.338.

First: UUGAUGUCAGAAUGAGGUGUACCAA [hsa-mir-4714]
Second: UUGAUGUCAGGUUAUCCCCAAGCAUAACCUCAC [hsa-mir-4639]
The “pull-down binding Z-score” value of the first is higher: -0.499 for the first, -0.576 for the second.

Compared with UUGAUUCAGUAAAACAUUCAA [hsa-mir-891b], UUGCCCAA [hsa-mir-548bb] is higher in “pull-down binding Z-score” value: -0.376 for the first, -0.0547 for the second.

First: UUGCUCACGGUAAGAAAAACAUGAGUAA [hsa-mir-8062]
Second: UUGCUCUUUGGUGGAGAUA [hsa-mir-6074]
The “pull-down binding Z-score” value of the first is higher: 0.553 for the first, 0.509 for the second.

Compared with UUGCUUAAG [hsa-mir-924], “UUGGCACAGGGAAGCGAGUCUGCCAA [hsa-mir-195]” is lower in “pull-down binding Z-score” value: 0.586 for the first, 0.0632 for the second.

Going from UUGGCCUUUAUUUUCAAUGGCAAG [hsa-mir-548b] to “UUGGCGUAGUGAAAUAUAUAUUAAACACCAA [hsa-mir-16-2]”, the “pull-down binding Z-score” value falls from 0.655 to 0.128.

First: UUGGCGUUAAGAUUCUAAAAUUAUCUCCAG [hsa-mir-16-1]
Second: UUGGGAUCCACCUUUCUCUCGA [hsa-mir-196b]
The “pull-down binding Z-score” value of the first is lower: -0.825 for the first, 0.578 for the second.
